This note sets out measurements from patent US20150086555A1.

Conditions in all cases: remark: other sources report otherwise
In experiment [1] the target is recombinant homotrimeric HA A/common magpie/Hong Kong/5052/07 H5N1 (Influenza A virus A/common magpie/Hong Kong/5052/2007(H5N1)). The experiment in a line: protein microarray, purified IgG, trimeric HA.
Experiment [2] has as its target T1, recombinant soluble homotrimeric HA of A/common magpie/Hong Kong/5052/07 (H5N1) (Influenza A virus A/common magpie/Hong Kong/5052/2007(H5N1)). The experiment can be described thus: HA microarray, BCC supernatant.
Experiment [3] addresses recombinant soluble homotrimeric HA, A/common magpie/Hong Kong/5052/07 H5N1 (Influenza A virus A/common magpie/Hong Kong/5052/2007(H5N1)). The experiment in a line: microarray, transfection SN IgG, trimeric HA.
The target of experiment [4] is T1, recombinant soluble homotrimeric HA of …. The experiment can be described thus: trimeric HA microarray, transfection supernatant set 2.
Experiment [5] shares this target. The experiment can be described thus: trimeric HA microarray, transfection supernatant set 5.

B1: TCN-541 (5062_M11) (antibody, V domains shown)
VH: QVQLQESGPGLVKPSETLSLTCTVSGGSINSYYWNWIRQPPGKGLEWIGYIYHSGSTNYNPSLKSRVTISVDTSKNQFSLQLSSVTAADTAVYYCARLRTDYGDPDSVYYYGMDVWGQGTTVTVSS
VL: SYELTQPPSVSVSPGQTARITCSGDALPKQNAYWYQQKPGQAPVLLIYKDSERPSGIPERFSGSSSGTTVTLTISGVQAEDEADYYCQSADSSGTSWVFGGGTKLTVL
For B1, the Trimeric HA Binding: RLU in experiment [1] turned out to be 728 RLU.

B2: TCN-539 (5056_A08) (antibody, V domains shown)
VH: QVQLVESGGGVVQPGRSLRLSCAASEITFITYAMHWVRQAPGKGLEWVALISDDGSNKFYADSVKGRFTISRDNSKNTLYLQMNSLRAEDTAAYYCAREGVYFDSGTYRGYFDYWGQETLVTVSS
VL: EIVLTQSPATLSLSPGERATLSCRASQSVSSYLAWYQQKPGQAPRLLIYDASNRATGIPARFSGSGSGTDFTLTISSLEPEDFAVYYCQQRSHWPPITFGQGTRLEIK
With B2, in experiment [2], the Trimeric HA Binding: RLU was 3960 RLU.

B3: TCN-557 (5081_A04) (antibody, V domains shown)
VH: QVQLVQSGAEVKKPGASVKVSCKASGHTFTGYYIHWVRQAPGQGLEWMGWINPDSGATSSAQNFQGRVTMTGDTSSSTAYMELSRLSFDDTAVYYCARVLFTSPFDFWGEGTLVTVSS
VL: QAVVTQEPSLAVSPGGTVTLTCGSSTGAVTRGHYPYWFQQKPGQAPRALIYDSAGNRHSWTPARFSGSLLGGKAALTLSGAQPEDEAEYYCLLSYSGVWVFGGGTKLTVL
Consider B3, for which the Trimeric HA Binding: RLU in experiment [3] was found to be 54900 RLU; in experiment [1], 23700 RLU.

B4: TCN-552 (5249_I23) (antibody, V domains shown)
VH: QVQVVQSGAEVKKPGSSVRVSCQASGGTFMNYAIIWVRRAPGQGLEWMGGIIPVFPTPNYAQMFQGRVTISTDESRSTSFLELTNLRYEDTAVYYCARRIYHGGNSGFDFWGQGTLVTVSS
VL: EIVLTQSPATLSLSPGERATLSCRASQSVGNYLAWYQQKPGQAPRLLIYDSSNRAPGIPARFSGSGSGTDFTLTISSLAPEDFAVYYCQQRSKWPPMYSFGHGTKLEIK
B4: the Trimeric HA Binding: RLU in experiment [3] is 34600 RLU; in experiment [2], 42200 RLU; in experiment [1] it was 19400 RLU.

B5: TCN-522 (3212_I12) (antibody, V domains shown)
VH: QVQLQQWGAGLLKPSETLSLTCTVSGGSLTDYSWNWIRQPPGKGLEWIGDTLHNGYTNYNPSLRGRVSISIDTSKNQVSLRLTSVTAADTALYYCARGSGGYGGFDYFGKLRTWDFWGQGTLVTVSS
VL: DIQLTQSPSSLSASVGDRVTITCRASQGIRNDLGWYQQKPGNAPKRLIFGASSLQSGVPSRFSGSGSGTEFTLTISSLQPEDFATYYCLQHNSYPYTFGQGTKLEIK
On to B5, for which the Trimeric HA Binding: RLU came out at 21400 RLU in experiment [4] and 15100 RLU in experiment [1].

B6: TCN-545 (5082_I15) (antibody, V domains shown)
VH: QVQLQQWGAGLLKPSETLSLSCAVFGGSFSDYYWTWIRQPPGKGLEWIGEIKHSGRTNYNPSLESRVTISVDTSKNQFSLKLSSVTAADTAIYYCARGTDPDTEGYCRSGSCSAFDFWGQGTLVTVSS
VL: EIVLTQSPGTLSLSPGERATLSCRASHFVNYRSLAWYQQTPGQVPRLLIYGASTRATGIPDRFSGSGSGTDFTLTISRLEPEDFAVYFCQQYGGSPRYTFGQGTRLEIK
Take B6: the Trimeric HA Binding: RLU in experiment [5] came to 1390 RLU; in experiment [1], 804 RLU.

B7: TCN-555 (5246_L16) (antibody, V domains shown)
VH: QVQLVQSGAEVKRPGSSVKVSCTASGGIFRKNAISWVRQAPGQGLEWMGGIIAVFNTANYAQKFQNRVKITADESGNTAYMELSSLTSDDTAVYYCASHPKYFYGSGSYPDFWGQGTLVTVSS
VL: QSALTQPRSVSGSPGQSITISCTGGSSDIGASNSVSWYQQHPGKAPKLVIFDVTERPSGVPHRFSGSKSGNTASLTVSGLQPDDEADYFCCAYGGKYLVVFGGGTKVTVL
For the molecule B7, the Trimeric HA Binding: RLU was determined as 33600 RLU in experiment [3], 16100 RLU in experiment [2] and 17000 RLU in experiment [1].

B8: TCN-551 (5243_D01) (antibody, V domains shown)
VH: EVQLVQSGSEVKKPGESLKISCKGSGYSFSNYWIGWVRHMPGKGLEWMGIIYPGDSDTRYSPSFQGQVTMSADKSSSTVYLQWSSLKASDTAIYYCARRGGHSFGYGSGGDTHSEFDSWGQGTLVTVSS
VL: QSVLTQSPSVSAAPGQKVTISCSGSDSNIGDYFVCWYQHLPGKPPQLLIYENNKRPSGIPDRFSGSKSGTSATLGITGIQTGDEADYYCATWDGSLSAWVFGGGTKLTVL
As to B8, the Trimeric HA Binding: RLU stood at 45700 RLU in experiment [2] and 907 RLU in experiment [1].

B9: TCN-537 (3194_D21) (antibody, V domains shown)
VH: QVQLQQWGSGLLKPSETLSLTCAVYGGSFRDDYWTWIRQPPGKGLEWIGEINHSGRTNYNPSLKSRVTISVDTSLKQFSLKVISVTAADTAVYYCARGTSHVSRYFDWLPPTNWFDPWGQGTQVTVSS
VL: DIVLTQSPGTLSLSPGERATLSCRASQSVSSSYLAWYQQKPGQAPRLVMYGAATRATGIPDRFSGSGSGPDFTLTISRLEPEDFAMYYCQQYGNSPITFGQGTRLEIK
As for B9, the Trimeric HA Binding: RLU in experiment [2] turned out to be 18700 RLU; in experiment [5], 2070 RLU; in experiment [1] it was 810 RLU.

B10: TCN-543 (5081_G23) (antibody, V domains shown)
VH: QVHLVQSGAEVRKPGDSVKVSCKTSGYTFSTYPVAWVRQVPGQGLEWMGWISTYNGNTNFAQNFQGRVTLTTDTTTNTAYMEVRSLKFDDTAVYYCARVEGSYRDFWNNQNRFDPWGQGTLVTVSS
VL: SYVLTQPPSVSVAPGQTARISCGGSNIGGKSVHWYQQKPGQAPVLVVYDDSGRPSGIPERFSGSNSGDTATLTISRVEAGDEADYFCQVWDNFGGVFGTGTKVTVL
Take B10: the Trimeric HA Binding: RLU in experiment [5] was found to be 1070 RLU; in experiment [1], 679 RLU.

B11: TCN-527 (5086_C06) (antibody, V domains shown)
VH: QVQLQESGPGLVKPSETLSLNCAVSGGSISNYYWSWIRQPPGKGLEWIGYISYNGRPKYNPSLTSRVTISVDTSKDQFSLELRSVTAADTALYYCARETRFGELLSPYDAFEIWGQGTMVTVSS
VL: DIQMTQSPSSLSASVGDRVTMTCRASQNIRSYLNWYQQRPGTAPKLLIYAASTLHSGVPSRFSGGGSGTDFTLTINNLQPEDFASYYCQQSYDNPQTFGQGTKVEIK
On to B11, for which the results for the Trimeric HA Binding: RLU in experiment [4] and in experiment [1] were 43800 RLU and 24600 RLU, respectively.

B12: TCN-550 (5096_F06) (antibody, V domains shown)
VH: QVQLQESGPGLVKPSETLSLTCTVSGASINSHYWSWIRQPPGKGLEWIGYVYYSGSTTYNPSLKSRVTLSVDTSKNQFSLNLSSVTAADTAFYYCARHPYDVLTGSGDWFDPWGQGTLVTVSS
VL: SYVLTQAPSVSVAPGQTARITCGGNAIGSKKVHWYQHKAGQAPVLVVYDDTDRPSGIPERFSGSNSWSTATLTINRVEAGDEADYYCQVWDFTIDHVVFGGGTKLTVL
Regarding B12, the Trimeric HA Binding: RLU in experiment [3] came to 993 RLU; in experiment [1], 753 RLU.

B13: TCN-546 (5089_L08) (antibody, V domains shown)
VH: QVQLQQWGAGLLKPSETLSLTCGVYGGSLSDYYWSWIRQPPGKGLEWIGEINHSGGTNYNPSLKRRVTISVDTSKKQFSLKMNSVTAADTAVYYCARGTDPDTEVYCRAGNCAAFDFWGQGTLVTVSS
VL: EIVLTQSPGTLSLSPGERATLSCRASHFVIGRAVAWYQQKPGQAPRLLIYGASSRATGIPDRFSGSGSGTDFTLTISRLETEDFAVFYCQHYGSSPRYAFGQGTKLEIK
Take B13: the Trimeric HA Binding: RLU in experiment [5] was 1920 RLU; in experiment [1], 810 RLU.

B14: TCN-528 (5087_P17) (antibody, V domains shown)
VH: QVQLVQSGSEVKKPGASVKVSCKASGYTFTNYDINWIRQAPGQGLEWMGWINPNSGTTGSAQRFQGRVTITVDTSITTVYMELSSLRSDDTAIYYCARGRELLRLQHFLTDSQSERRDCFDPWGQGTLVTVSS
VL: DIQMTQSPSSLSASVGDRVTITCRANQDIGIYLNWYQQNPGKVPKLLLHGASSLQGGVPSRFSASGSGTDFTLTIHSLQPEDLATYYCQQSRRLPYTFGQGTRVELK
For B14, the Trimeric HA Binding: RLU in experiment [4] came out at 45300 RLU; in experiment [1], 25500 RLU.

B15: TCN-521 (3280_D18) (antibody, V domains shown)
VH: EVQLVQSGGGLVQPGGSLRLACVVSGFTVTSNYITWVRQAPGKGLEWVSVIYSHGRAYYSASVNGRFTISRHTSKNTVYLEMNSLRPEDTAVYYCAGGGLVGGYDEYFFDYWGQGTLATVSS
VL: ETVLTQSPGTLSLTPGERATLSCRVGQSVSGSHLAWYQQKPGQAPRLLIYGASSRATGIPDRFGGSVSGTDFTLTISRLEPEDSAVYYCQQYGDSRYTFGQGTKLEIK
Turning to B15, in experiment [2], the Trimeric HA Binding: RLU was 13500 RLU.

B16: TCN-553 (5261_C18) (antibody, V domains shown)
VH: QVQVVQSGTEVKKPGSSVKVSCQTSGGRFMSYAITWVRQAPGQGLEWMGGIVPVFGTANYAQKFQGRVTITTDDSTRTAYMELSSLRSEDTAVYYCGFRYGSGYGFDSWGQGTLVTVSS
VL: EIVLTQSPGTLSLSPGERATLSCRASQSVSSSYLAWYQKKPGQAPRLLIYGASTRATGIPDRFTGSGSGTDFTLSISRLEPEDFAVYYCQHFGTSVFTFGGGTKVEIK
Take B16: the Trimeric HA Binding: RLU in experiment [3] turned out to be 39200 RLU; in experiment [2], 26000 RLU; in experiment [1], 22800 RLU.

B17: TCN-542 (5079_A16) (antibody, V domains shown)
VH: QVQLQESGPGLVKPSQTLSLTCTVSGGSISSGNYYWNWVRQHPGKGLEWIGYIYYRGSTFYNPSLKSRVTISIDTSKNQFSLRLSSVTAADTAVYYCAKDTRSSLDNYQYGMDVWGQGTTVTVSS
VL: QTVVTQEPSLTVSPGGTVTLTCASSTGAVTSSYFPNWFQQKPGQAPRPLIYSTTIRHSWTPARFSGSLLGGKAALTLSGVQPEDEADYYCLLYSGGDPVAFGGGTKLTVL
On to B17, for which the Trimeric HA Binding: RLU in experiment [1] was found to be 1540 RLU.
